The test system of experiment [1] is uncomplexed β-catenin. Briefly: Uncomplexed β-catenin in A1847 ovarian tumor cells. Format: cell-based, human. Conditions: FRP1-HA retrovirus. The protocol: (§1) β-catenin levels were assessed using the GST-E-cadherin binding assay, which has been previously described (Bafico et al., (1998) Oncogene 16:2819-2825). Briefly, bacterially expressed GST-E-cadherin was purified with glutathione-Sepharose beads and incubated with 1 mg of each cell lysate. The GST-E-cadherin/[…]-catenin complex bound to the beads was recovered by centrifugation and analyzed by SDS-PAGE followed by immunoblotting. The uncomplexed β-catenin was detected using a monoclonal antibody to β-catenin (Transduction Laboratories). Unphosphorylated β-catenin was detected with a monoclonal antibody specific for β-catenin dephosphorylated at residues 27-37 (Alexis, Läufelfingen, Switzerland). FRP1-HA and DKK1-HA were detected with an anti-HA monoclonal antibody (Hybridoma Center, Mount Sinai School of Medicine, New York).
Breast (MDAMB231, ATCC No. HTB-26) and ovarian A1847 tumor cell lines were infected with vector alone or FRP 1-HA (described in Example 1) retroviruses and marker selected. […] Breast (MDAMB231) and ovarian A1847 tumor cell lines were analyzed for uncomplexed β-catenin and FRP 1-HA by immunoblot analysis with either an anti-β-catenin antibody (Transduction Laboratories) or an anti-HA antibody (Hybridoma Center, Mount Sinai School of Medicine, New York). […]

Experiment [2] concerns uncomplexed β-catenin. Briefly: Uncomplexed β-catenin in HCT116 wild type or mutant β-catenin allele clones. Format: cell-based, human. Conditions: FRP1-HA transfection. The protocol:
as §1
HCT116 parental cells and clones expressing either the wild type or mutant β-catenin allele were transfected with FRP1-HA and subjected to the GST-E-cadherin binding assay (described in Example 3) to examine the effect of FRP1 on uncomplexed β-catenin levels. Uncomplexed β-catenin was detected with anti-β-catenin antibody. The levels of FRP1 in the lysates were detected with an anti-HA antibody. […]

The subject of a further experiment is cyclin D1. Briefly: Northern blot of Cyclin D1 in HCT116 clone. Format: cell-based, human. Conditions: HCT116 wild type allele-containing clone. The source says:
We next assessed the effects of FRP1 inhibition on the expression of Id2, Cyclin D1 and Myc, known targets of Wnt/β-catenin in colorectal cancer (Rockman et al. (2001) J. Biol. Chem. 276:45113-45119; Tetsu and McCormick (1999) Nature 398:422-426; He et al. (1998) Science 281:1509-1512). RNAs were extracted from HCT116 parental cells, and either wild type or mutant β-catenin allele containing clones transfected with either vector control or FRP1-HA using Triazol (Invitrogen). The RNAs were separated by (1%) agarose gel electrophoresis and transferred to a nylon membrane (Hybond®, Pharmacia). Probes were labeled by the Random Prime Labelling System method (Amersham Biosciences), and hybridization was performed overnight utilizing the Hybrisol I solution (Serologicals Corporation) according to the manufacturer's instructions. Normalization was performed utilizing a commercial human GADPH control probe (BD Biosciences Clontech).

In experiment [3] the test system is TCF-dependent reporter activity. Briefly: TOP-Glow/FOP-Glow TCF reporter assay in HCT116 wild type β-catenin allele clone. Format: cell-based, human. As to the method:
TCF responsive elements operably linked to a reporter (TOP-Glow, wild type, or FOP-Glow, mutant) were analyzed for transcriptional activity in […]. HCT116 (ATCC No. CCL-247) cells containing the wild type β-catenin allele were plated at 3×10^5 per well in 6-well plates and co-transfected with 1 μg of either the TOP-glow or FOP-glow plasmids (Upstate Biotechnology) and 0.001 μg of the Renilla control plasmid (pRL-CMV) utilizing FuGene® (Roche) according to the manufacturer's instructions. After 48 hours cells were lysed and analyzed utilizing the Dual Luciferase Reporter Assay system (Promega).
For orientation: In a reporter assay the amount or activity of a reporter protein is the signal.

In experiment [4] the test system is uncomplexed β-catenin. Briefly: GST-E-cadherin binding assay / immunoblot of uncomplexed β-catenin, Wnt-3a expressing NIH3T3 cells. Format: cell-based, mouse. Conditions: NIH3T3 cells stably expressing Wnt-3a; purified DKK1 (10 nM). The protocol:
as §1, with “York). […]” for “York).”
On the technique in general: A western blot detects proteins with antibodies after separation by electrophoresis.

In experiment [5] the test system is uncomplexed β-catenin. As to the kind of experiment: Uncomplexed β-catenin in HCC38 and other positive breast cancer cell lines. It is filed as cell-based, human. Conditions: HCC38 and several positive breast cancer lines; DKK1-containing conditioned media for two hours. As to the method:
as §1
In addition, we have analyzed about 20 additional human breast cancer cell lines for increased levels of uncomplexed β-catenin. Analysis of uncomplexed β-catenin levels was performed as described in Example 3 utilizing 1 mg of total cell lysate. A monoclonal antibody to β-catenin (Transduction Laboratories) was utilized for immunoblotting. We found increased levels of uncomplexed β-catenin in 6 of these cell lines (FIG. 3A, lanes 1, 3, 4 and data not shown). We have also analyzed DKK inhibition of autocrine Wnt signaling in HCC38 breast cancer cells. […]

B1: FRP1: human secreted Frizzled Related Protein 1, Wnt antagonist; expressed from pBabe-derived retrovirus with carboxy-terminal HA tag (protein, UniProt Q8N474 32-314, looked up)
Secreted frizzled-related …: SEYDYVSFQSDIGPYQSGRFYTKPPQCVDIPADLRLCHNVGYKKMVLPNLLEHETMAEVKQQASSWVPLLNKNCHAGTQVFLCSLFAPVCLDRPIYPCRWLCEAVRDSCEPVMQFFGFYWPEMLKCDKFPEGDVCIAMTPPNATEASKPQGTTVCPPCDNELKSEAIIEHLCASEFALRMKIKEVKKENGDKKIVPKKKKPLKLGPIKKKDLKKLVLYLKNGADCPCHQLDNLSHHFLIMGRKVKSQYLLTAIHKWDKKNKEFKNFMKKMKNHECPTFQSVFK
modifications: C-terminal HA tag
notes: human secreted Frizzled Related Protein 1, Wnt antagonist; expressed from pBabe-derived retrovirus with carboxy-terminal HA tag
With B1, the “constitutively up-regulated β-catenin” value with uncomplexed β-catenin [1] is given as “inhibition of constitutively up-regulated β-catenin”. For the same molecule, the “uncomplexed β-catenin levels” value with uncomplexed β-catenin [2] (HCT116 clone containing only the mutant β-catenin allele) was “little if any effect”. The β-catenin levels result with uncomplexed β-catenin [2] (HCT116 wild type β-catenin allele-containing clone) was “dramatic reduction”. For the same molecule, the “expression of Cyclin D1” value in the experiment with cyclin D1 is “dramatically inhibited”. For the same molecule, the TCF-dependent reporter activity entry in experiment [3] was “able to inhibit”.

B2: DKK1: Dickkopf-1, secreted Wnt antagonist protein that binds Wnt co-receptor LRP6; used purified, in conditioned media or retrovirally expressed with HA tag (protein, UniProt O94907 32-266, looked up)
Dickkopf-related protein 1: TLNSVLNSNAIKNLPPPLGGAAGHPGSAVSAAPGILYPGGNKYQTIDNYQPYPCAEDEECGTDEYCASPTRGGDAGVQICLACRKRRKRCMRHAMCCPGNYCKNGICVSSDQNHFRGEIEETITESFGNDHSTLDGYSRRTTLSSKMYHTKGQEGSVCLRSSDCASGLCCARHFWSKICKPVLKEGQVCTKHRRKGSHGLEIFQRCYCGEGLSCRIQKDHHQASNSSRLHTCQRH
modifications: HA tag in some uses
For the molecule B2, the “up-regulated β-catenin levels” value in the experiment with uncomplexed β-catenin [4] was “striking inhibition of up-regulated β-catenin levels”. Moreover, the “uncomplexed β-catenin levels” value with uncomplexed β-catenin [5] is “striking reduction”.
